Values of other authors as cited in publication PMC7060279.

Key:
TLR4/MD2 (Homo sapiens) = TLR4/MD2 (Homo sapiens) (UniProt O00206)
TLR4 (Homo sapiens) = TLR4 (Homo sapiens) (UniProt O00206)
Sequence of TLR4 (Homo sapiens) (O00206 24-839): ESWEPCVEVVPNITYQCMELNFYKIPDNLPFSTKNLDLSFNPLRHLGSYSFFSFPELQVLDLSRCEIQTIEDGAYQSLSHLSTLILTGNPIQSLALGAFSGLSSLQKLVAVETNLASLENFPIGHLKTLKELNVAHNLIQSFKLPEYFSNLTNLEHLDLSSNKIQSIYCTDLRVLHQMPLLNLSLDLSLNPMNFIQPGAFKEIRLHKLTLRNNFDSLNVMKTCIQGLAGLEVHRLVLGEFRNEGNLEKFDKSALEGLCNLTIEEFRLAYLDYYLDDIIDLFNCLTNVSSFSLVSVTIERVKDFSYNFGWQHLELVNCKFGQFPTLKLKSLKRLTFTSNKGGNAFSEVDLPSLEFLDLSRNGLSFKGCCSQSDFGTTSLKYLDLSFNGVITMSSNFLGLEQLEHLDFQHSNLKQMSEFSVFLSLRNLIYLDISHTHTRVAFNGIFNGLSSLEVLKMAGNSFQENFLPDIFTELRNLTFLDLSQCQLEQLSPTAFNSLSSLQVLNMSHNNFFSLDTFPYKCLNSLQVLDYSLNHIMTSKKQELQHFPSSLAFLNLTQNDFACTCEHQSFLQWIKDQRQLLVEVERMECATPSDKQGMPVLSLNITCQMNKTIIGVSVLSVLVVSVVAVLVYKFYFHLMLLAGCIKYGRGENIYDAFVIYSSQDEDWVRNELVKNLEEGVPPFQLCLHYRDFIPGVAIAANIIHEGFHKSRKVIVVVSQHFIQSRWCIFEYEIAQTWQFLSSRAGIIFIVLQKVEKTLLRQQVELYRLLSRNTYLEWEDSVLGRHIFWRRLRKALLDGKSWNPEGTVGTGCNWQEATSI

Sequence of HMGB1 (P09429 whole entry): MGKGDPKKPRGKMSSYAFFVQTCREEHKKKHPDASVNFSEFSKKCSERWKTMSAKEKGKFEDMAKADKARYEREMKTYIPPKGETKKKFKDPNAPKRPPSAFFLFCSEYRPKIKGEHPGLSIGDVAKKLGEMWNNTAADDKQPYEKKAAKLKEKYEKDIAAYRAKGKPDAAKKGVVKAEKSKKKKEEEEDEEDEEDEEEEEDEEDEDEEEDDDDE
Sequence of TLR4/MD2 (Homo sapiens) (O00206 24-839, chain 1 of 2): as the sequence (O00206 24-839) above
Sequence of TLR4/MD2 (Homo sapiens) (Q9Y6Y9 19-160, chain 2 of 2, further chain): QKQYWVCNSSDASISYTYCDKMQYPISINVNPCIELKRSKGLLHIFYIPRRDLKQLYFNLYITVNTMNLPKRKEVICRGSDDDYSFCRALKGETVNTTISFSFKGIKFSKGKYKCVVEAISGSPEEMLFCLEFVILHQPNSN

Kd (TLR4/MD2 (Homo sapiens)): 420 nM | Kd (TLR4 (Homo sapiens)): 650 nM
Substance: HMGB1 (from UniProt P09429)
